Results on four substances are retold here after US7378087.

For test [1], the target named is H-2K^b MHC class I molecule (mouse) (UniProt P01901). The experiment in a line: FACS on CMT.neo cells (vector control).
For test [2] the target is unchanged. The experiment in a line: FACS on CMT.64 cells treated with IFN-γ.
The target is the same in test [3]. The experiment in a line: FACS on CMT.1-1 cells (rTAP1 transfectant).
For test [4] the target is unchanged. The experiment in a line: single-colour FACS on RMA-S.ptml cells (TAP-1 antisense).
The target is the same in test [5]. The experiment in a line: single-colour FACS on RMA-S cells (linear, 5000 events).
The target is the same in test [6]. The experiment in a line: FACS on CMT.64 cells.
Test [7] has the same target. The experiment in a line: FACS on CMT.1-4 cells (rTAP1 transfectant).
For test [8] the target is unchanged. The experiment in a line: FACS on CMT.2-1 cells (rTAP2 transfectant).
The target is the same in test [9]. The experiment in a line: FACS on CMT.1-10 cells (rTAP1 transfectant).
Test [10] shares this target. The experiment in a line: FACS on CMT.12-21 cells (rTAP1,2 transfectant).
Test [11] has the same target. The experiment in a line: FACS on CMT.2-10 cells (rTAP2 transfectant).
Test [12] concerns the target H-2D^b MHC class I molecule (mouse) (UniProt P01899). The experiment in a line: FACS on CMT.64 cells treated with IFN-γ.
Chain of UniProt P01899 (P01899 25-309 limits assumed): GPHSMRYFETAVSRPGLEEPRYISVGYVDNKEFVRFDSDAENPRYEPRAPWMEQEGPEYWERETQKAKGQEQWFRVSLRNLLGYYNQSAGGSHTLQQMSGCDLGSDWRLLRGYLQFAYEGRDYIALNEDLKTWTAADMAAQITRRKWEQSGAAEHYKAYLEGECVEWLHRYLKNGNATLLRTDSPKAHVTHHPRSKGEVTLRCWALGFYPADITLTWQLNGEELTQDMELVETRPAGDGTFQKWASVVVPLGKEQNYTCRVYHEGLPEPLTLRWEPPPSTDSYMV
For test [13] the target is unchanged. The experiment in a line: single-colour FACS on RMA-S.ptml cells (TAP-1 antisense).
Test [14] shares this target. The experiment in a line: single-colour FACS on RMA-S cells (linear, 5000 events).
For test [15] the target is unchanged. The experiment in a line: FACS on CMT.64 cells.
Test [16] shares this target. The experiment in a line: FACS on CMT.1-4 cells (rTAP1 transfectant).
Test [17] shares this target. The experiment in a line: FACS on CMT.2-1 cells (rTAP2 transfectant).
Test [18] shares this target. The experiment in a line: FACS on CMT.1-10 cells (rTAP1 transfectant).
The target is the same in test [19]. The experiment in a line: FACS on CMT.12-21 cells (rTAP1,2 transfectant).
The target is the same in test [20]. The experiment in a line: FACS on CMT.2-10 cells (rTAP2 transfectant).
The target of test [21] is human β2-microglobulin (human) (UniProt P61769). The experiment in a line: FACS on RMA-S cells; IFN +, peptide +, hβ2m + (hβ2m bound on the cell surface).
Chain of UniProt P61769 (P61769 21-119 limits assumed): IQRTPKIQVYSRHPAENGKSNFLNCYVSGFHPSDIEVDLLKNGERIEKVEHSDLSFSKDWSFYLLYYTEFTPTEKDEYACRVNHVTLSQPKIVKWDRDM
The target is the same in test [22]. The experiment in a line: FACS on RMA cells; IFN -, peptide -, hβ2m - (no hβ2m added: background).
The target is the same in test [23]. The experiment in a line: FACS on RMA cells; IFN +, peptide +, hβ2m + (hβ2m bound on the cell surface).
Test [24] shares this target. The experiment in a line: FACS on RMA cells; IFN -, peptide +, hβ2m + (hβ2m bound on the cell surface).
The target is the same in test [25]. The experiment in a line: FACS on RMA cells; IFN +, peptide -, hβ2m + (hβ2m bound on the cell surface).
Test [26] has the same target. The experiment in a line: FACS on RMA-S cells; IFN +, peptide +, hβ2m - (no hβ2m added: background).
Test [27] has the same target. The experiment in a line: FACS on RMA cells; IFN +, peptide +, hβ2m - (no hβ2m added: background).
Test [28] shares this target. The experiment in a line: FACS on RMA-S cells; IFN +, peptide -, hβ2m - (no hβ2m added: background).
Test [29] shares this target. The experiment in a line: FACS on RMA-S cells; IFN -, peptide +, hβ2m + (hβ2m bound on the cell surface).
Test [30] has the same target. The experiment in a line: FACS on RMA-S cells; IFN -, peptide -, hβ2m - (no hβ2m added: background).
Test [31] shares this target. The experiment in a line: FACS on RMA cells; IFN +, peptide -, hβ2m - (no hβ2m added: background).
The target is the same in test [32]. The experiment in a line: FACS on RMA-S cells; IFN +, peptide -, hβ2m + (hβ2m bound on the cell surface).
In test [33] the target is H-2D^b MHC class I molecule (mouse) (UniProt P01899). The experiment in a line: FACS on RMA cells; IFN +, peptide +, hβ2m +.
Test [34] has the same target. The experiment in a line: FACS on RMA cells; IFN -, peptide -, hβ2m -.
The target is the same in test [35]. The experiment in a line: FACS on RMA-S cells; IFN +, peptide -, hβ2m -.
For test [36] the target is unchanged. The experiment in a line: FACS on RMA-S cells; IFN +, peptide +, hβ2m +.
Test [37] shares this target. The experiment in a line: FACS on CMT.64 cells; IFN -, peptide +, hβ2m +.
Test [38] shares this target. The experiment in a line: FACS on CMT.64 cells; IFN * (so in the source), peptide +, hβ2m +.
Test [39] shares this target. The experiment in a line: FACS on CMT.64 cells; IFN +, peptide -, hβ2m -.
Test [40] shares this target. The experiment in a line: FACS on RMA cells; IFN +, peptide +, hβ2m -.
Test [41] shares this target. The experiment in a line: FACS on RMA-S cells; IFN +, peptide +, hβ2m -.
The target is the same in test [42]. The experiment in a line: FACS on RMA cells; IFN -, peptide +, hβ2m +.
Test [43] has the same target. The experiment in a line: FACS on RMA-S cells; IFN +, peptide -, hβ2m +.
The target is the same in test [44]. The experiment in a line: FACS on RMA-S cells; IFN -, peptide -, hβ2m -.
The target is the same in test [45]. The experiment in a line: FACS on CMT.64 cells; IFN -, peptide -, hβ2m -.
Test [46] shares this target. The experiment in a line: FACS on RMA cells; IFN +, peptide -, hβ2m +.
For test [47] the target is unchanged. The experiment in a line: FACS on RMA cells; IFN +, peptide -, hβ2m -.
Test [48] shares this target. The experiment in a line: FACS on RMA-S cells; IFN -, peptide +, hβ2m +.

Chain of UniProt P01901 (P01901 22-305 limits assumed): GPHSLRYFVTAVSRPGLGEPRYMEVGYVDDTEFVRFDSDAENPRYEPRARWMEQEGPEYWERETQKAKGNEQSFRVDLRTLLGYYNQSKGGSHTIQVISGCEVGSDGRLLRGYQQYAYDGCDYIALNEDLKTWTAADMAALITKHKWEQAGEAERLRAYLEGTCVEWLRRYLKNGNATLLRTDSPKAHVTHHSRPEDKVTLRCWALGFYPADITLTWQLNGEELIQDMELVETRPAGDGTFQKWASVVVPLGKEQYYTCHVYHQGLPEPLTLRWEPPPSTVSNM

As to Y-3 anti-H-2K^b monoclonal antibody, the immunofluorescence intensity (negative control subtracted) in test [1] stood at 0.1; in [2], 590; in [3], 62; in test [6], 0; in test [7], 64; in [8], 3. Besides, the immunofluorescence intensity (negative control subtracted) in [9] stood at 36; in test [10], 22; in test [11], 48. Further, the MEAN FLUORESCENCE in test [4] worked out at 149; in test [5] it was 222.
For “28-14-8s anti H-2 D^b (α3) monoclonal antibody”, the immunofluorescence intensity (negative control subtracted) in test [12] came to 1100; in test [15] it was 18; in [16], 164; in test [17], 10; in [18], 68; in [19], 103. The immunofluorescence intensity (negative control subtracted) in test [20] was 39. Also, the MEAN FLUORESCENCE in test [13] is 96.7; in test [14] it was 130.
For the substance “BBM.1 monoclonal antibody against human β2m”, the fluorescence units (arbitrary fluorescence units) in test [21] turned out to be 262; in [22], 1; in test [23] it was 606; in test [24], 274; in [25], 406; in [26], 14. Besides, the fluorescence units (arbitrary fluorescence units) came to 4 in test [27]; 14 in [28]; 86 in test [29]; 1 in test [30]; 6 in test [31]; 76 in [32].
As for “28-11-5s anti H-2 D^b (α1+α2) monoclonal antibody”, the fluorescence units (arbitrary fluorescence units) in test [33] is 515; in test [34], 173; in test [35], 4; in test [36], 2; in test [37] it was 5; in test [38], 53. The fluorescence units (arbitrary fluorescence units) in [39] came to 58; in test [40], 449; in [41] it was 1; in [42], 182; in test [43] it was 2; in [44], 2. Also, the fluorescence units (arbitrary fluorescence units) in test [45] came to 3; in test [46], 549; in test [47], 430; in [48], 2.
